Assay: Enzymatic activity of mouse versus human β-glucuronidase at pH 7.0
Format: biochemical
Description: Each of the cDNAs encoding human and mouse beta-glucuronidases (Genbank accession no. NM_000181, 03-SEP-2009 and Genbank accession no. J02836.1, 29-APR-1996) was fused to the juxtamembrane Ig-like extracellular domain, transmembrane domain and cytoplasmic tail of murine B7-1. See Chen et al., Cancer Gene Ther 14:187-200 (2007).

B1: Mouse β-glucuronidase: mouse beta-glucuronidase, Genbank accession no. J02836.1 (protein)
chain: LKGGMLFPKESPSRELKALDGLWHFRADLSNNRLQGFEQQWYRQPLRESGPVLDMPVPSSFNDITQEAALRDFIGWVWYEREAILPRRWTQDTDMRVVLRINSAHYYAVVWVNGIHVVEHEGGHLPFEADISKLVQSGPLTTCRITIAINNTLTPHTLPPGTIVYKTDTSMYPKGYFVQDTSFDFFNYAGLHRSVVLYTTPTTYIDDITVITNVEQDIGLVTYWISVQGSEHFQLEVQLLDEGGKVVAHGTGNQGQLQVPSANLWWPYLMHEHPAYMYSLEVKVTTTESVTDYYTLPIGIRTVAVTKSKFLINGKPFYFQGVNKHEDSDIRGKGFDWPLLVKDFNLLRWLGANSFRTSHYPYSEEVLQLCDRYGIVVIDECPGVGIVLPQSFGNESLRHHLEVMEELVRRDKNHPAVVMWSVANEPSSALKPAAYYFKTLITHTKALDLTRPVTFVSNAKYDADLGAPYVDVICVNSYFSWYHDYGHLEVIQPQLNSQFENWYKTHQKPIIQSEYGADAIPGIHEDPPRMFSEEYQKAVLENYHSVLDQKRKEYVVGELIWNFADFMTNQSPLRVIGNKKGIFTRQRQPKTSAFILRERYWRIANETGGHGSGPRTQCFGSRPFTFKADFSTPNITESGNPSADTKRITCFASGGFPKPRFSWLENGRELPGINTTISQDPESELYTISSQLDFNTTRNHTIKCLIKYGDAHVSEDFTWEKPPEDPPDSKNTLVLFGAGFGAVITVVVIVVIIKCFCKHRSCFRRNEASRETNNSLTFGPEEALAEQTVFL
modifications: left off: small tags and cut ends
  Enzymatic activity compared with human β-glucuronidase: about three-fold greater

— patent US8491891B2, “Human beta-glucuronidase mutants with elevated enzymatic activity under physiological conditions and method for identifying such” (Academia Sinica, priority 2008, dated 2013)
